Assay results taken from US20110195067A1.

Target: FcγRIII (CD16) (human) (UniProt P08637)
Assay: cell-based or functional assay

Sequence of FcγRIII (CD16) (human) (P08637 17-254): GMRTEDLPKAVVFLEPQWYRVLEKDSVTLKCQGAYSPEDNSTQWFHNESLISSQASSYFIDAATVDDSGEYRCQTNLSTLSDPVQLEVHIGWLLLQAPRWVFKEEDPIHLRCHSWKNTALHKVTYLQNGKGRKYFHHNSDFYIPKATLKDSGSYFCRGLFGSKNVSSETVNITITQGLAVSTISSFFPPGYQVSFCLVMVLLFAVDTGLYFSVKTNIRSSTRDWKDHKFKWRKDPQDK

## heat aggregated IgG
  IFN-γ secretion from PBMC, aggregated IgG (40 µg/ml) + IL-2: 13 ng/mL
  TNF-α secretion from PBMC, aggregated IgG (40 µg/ml) + IL-2: 2.46 ng/mL
  fold induction of PBMC proliferation over IL-2, 125 µg/mL of AIG: 16 fold
  proliferative response of PBMC, 125 µg/mL of AIG and IL-2: 17400 CPM

## anti-CD16 mAb 3G8 (Caltag Laboratories) (antibody)
  IFN-γ secretion from PBMC, immobilized 3G8 (10 µg/ml) + IL-2: 9.85 ng/mL
  TNF-α secretion from PBMC, immobilized 3G8 (10 µg/ml) + IL-2: 3.32 ng/mL
  proliferative response of PBMC ([methyl-3H] thymidine), IL-2 and immobilized anti-CD16 mAb: 15500 CPM
  proliferative response of PBMC ([methyl-3H] thymidine), immobilized anti-CD16 mAb alone: 592 CPM
